Assay results: patent publication US20240400614A1, “CLEAVABLE PEPTIDES AND METHODS OF USE THEREOF” (Bright Peak Therapeutics AG, priority 2023, published 2024)
Square brackets hold non-standard residues; d marks the D form. Ends that are not written are not given here. Tyr(3-NO2) = N[C@@H](Cc1ccc(O)c([N+](=O)[O-])c1)C(=O)O; 2Abz = Nc1ccccc1C(=O)O

How the values were obtained:
Assay type in all cases: biochemical
uPA = uPA (Homo sapiens, UniProt P00749); experiment: FRET peptide cleavage efficiency with uPA; conditions: 200 uM linker, 1 ug/ml protease, 37° C., buffer A pH 8.5
Kallikrein-3 = Kallikrein-3 (Homo sapiens, UniProt P07288); experiment: FRET peptide cleavage efficiency with Kallikrein-3; conditions: peptide 200 uM, Kallikrein-3 2 μg/ml, 37° C., pH 8
matriptase = target: T1, matriptase (Homo sapiens, UniProt Q9Y5Y6); experiment: FRET peptide cleavage efficiency with matriptase; conditions: 200 uM linker, 1 ug/ml protease, 37° C., buffer B pH 9.0
T1 construct: purchased R&D Systems 3946-SEB
T1 sequence (Q9Y5Y6 615-855 limits assumed): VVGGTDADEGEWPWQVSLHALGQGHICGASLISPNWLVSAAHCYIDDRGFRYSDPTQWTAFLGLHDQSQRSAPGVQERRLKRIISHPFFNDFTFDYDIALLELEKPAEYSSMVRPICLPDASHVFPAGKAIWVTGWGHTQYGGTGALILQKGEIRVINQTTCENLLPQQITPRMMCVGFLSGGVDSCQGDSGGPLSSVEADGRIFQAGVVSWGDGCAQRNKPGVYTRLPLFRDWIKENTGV

MMP-2 = target: T2, MMP-2 (Homo sapiens, UniProt P08253); experiment: FRET peptide cleavage efficiency with MMP-2; conditions: 200 uM linker, 1 ug/ml protease, 37° C., buffer C pH 7.5
T2 construct: purchased SIGMA PF023
T2 sequence (P08253 110-660): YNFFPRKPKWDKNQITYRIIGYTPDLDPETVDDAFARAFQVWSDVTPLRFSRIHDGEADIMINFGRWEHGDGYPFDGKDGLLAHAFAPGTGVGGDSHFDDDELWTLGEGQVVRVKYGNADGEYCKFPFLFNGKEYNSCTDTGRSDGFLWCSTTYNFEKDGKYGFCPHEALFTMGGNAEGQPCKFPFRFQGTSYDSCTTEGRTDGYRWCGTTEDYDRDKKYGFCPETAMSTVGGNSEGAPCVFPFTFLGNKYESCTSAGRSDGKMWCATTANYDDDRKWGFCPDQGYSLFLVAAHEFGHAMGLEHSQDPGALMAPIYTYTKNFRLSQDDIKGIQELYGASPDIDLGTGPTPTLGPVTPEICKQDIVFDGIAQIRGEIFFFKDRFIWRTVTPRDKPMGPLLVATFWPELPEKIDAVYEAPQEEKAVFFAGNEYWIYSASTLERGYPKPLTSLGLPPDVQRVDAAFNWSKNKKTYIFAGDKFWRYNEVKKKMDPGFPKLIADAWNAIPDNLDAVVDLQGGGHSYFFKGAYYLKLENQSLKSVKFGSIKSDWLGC

Kallikrein-3, sequence (P07288 25-261, species assumed): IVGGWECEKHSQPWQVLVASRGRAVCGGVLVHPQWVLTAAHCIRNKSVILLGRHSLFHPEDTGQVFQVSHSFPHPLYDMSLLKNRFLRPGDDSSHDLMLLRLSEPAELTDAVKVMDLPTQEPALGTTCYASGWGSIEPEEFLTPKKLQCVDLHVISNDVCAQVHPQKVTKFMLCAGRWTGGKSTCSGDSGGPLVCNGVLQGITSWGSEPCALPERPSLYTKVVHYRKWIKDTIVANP

Substance	% cleavage uPA t = 15 min (uPA) [%]	% cleavage uPA t = 60 min (uPA) [%]	% cleavage uPA t = 120 min (uPA) [%]	Kallikrein-3 t = 1 h % cleavage (Kallikrein-3) [%]	Kallikrein-3 t = 3 h % cleavage (Kallikrein-3) [%]	Kallikrein-3 t = 6 h % cleavage (Kallikrein-3) [%]	Kallikrein-3 t = 8 h % cleavage (Kallikrein-3) [%]	% cleavage Matriptase t = 15 min (matriptase) [%]	% cleavage Matriptase t = 60 min (matriptase) [%]	% cleavage Matriptase t = 120 min (matriptase) [%]	% cleavage MMP-2 t = 15 min (MMP-2) [%]	% cleavage MMP-2 t = 60 min (MMP-2) [%]	% cleavage MMP-2 t = 120 min (MMP-2) [%]
GSSVYSGR ([2Abz]GSSVYSGR[Tyr(3-NO2)]-NH2) [LNK080]	4	17	28	16	41	68	79	2	6	10	1	3	5
GSSYYSGA ([2Abz]GSSYYSGA[Tyr(3-NO2)]-NH2) [LNK079]	0	0	0	34	75	99	100	0	0	0	10	42	70

The next lines start with the values.

% cleavage uPA t = 15 min (uPA) [%]	% cleavage uPA t = 60 min (uPA) [%]	% cleavage uPA t = 120 min (uPA) [%]	Kallikrein-3 t = 1 h % cleavage (Kallikrein-3) [%]	Kallikrein-3 t = 3 h % cleavage (Kallikrein-3) [%]	Kallikrein-3 t = 6 h % cleavage (Kallikrein-3) [%]	Kallikrein-3 t = 8 h % cleavage (Kallikrein-3) [%]	% cleavage Matriptase t = 15 min (matriptase) [%]	% cleavage Matriptase t = 60 min (matriptase) [%]	% cleavage Matriptase t = 120 min (matriptase) [%]	% cleavage MMP-2 t = 15 min (MMP-2) [%]	% cleavage MMP-2 t = 60 min (MMP-2) [%]	% cleavage MMP-2 t = 120 min (MMP-2) [%]	Substance
0	0	0	10	34	64	79	0	0	0	3	6	8	HSSKLQL ([2Abz]HSSKLQL[Tyr(3-NO2)]-NH2) [LNK078]
0	0	0	0	0	0	0	0	0	0	0	0	0	ISQYSSAT ([2Abz]ISQYSSAT[Tyr(3-NO2)]-NH2) [LNK070]
0	0	0	23	55	83	94	0	0	0	1	13	28	KLYSSKQ ([2Abz]KLYSSKQ[Tyr(3-NO2)]-NH2) [LNK071]
0	0	0	9	30	56	69	0	0	0	3	4	6	KSKQHSL ([2Abz]KSKQHSL[Tyr(3-NO2)]-NH2) [LNK077]
